Test results reported in patent publication US20190359693A1.

Tests used:
[1] = molecular target: recombinant HA of H3N2 A/HK/1/68-MA (influenza A virus); experiment: biolayer interferometry (Octet), steady-state fit, geometric mean, pH 7.4
[2] = molecular target: recombinant HA of B/Brisbane/60/08 (Victoria) (influenza B virus); experiment: as above
[3] = molecular target: recombinant HA of H7N3 A/NIBRG/60 (A/mallard/NL/12/00) (influenza A virus); experiment: as above
[4] = molecular target: recombinant HA of H1N1 A/Brisbane/59/07 (influenza A virus); experiment: as above
[5] = molecular target: recombinant HA of H3N2 A/Wisconsin/67/05 (influenza A virus); experiment: as above
[6] = molecular target: recombinant HA of H7N9 A/Hangzhou/1/2013 (influenza A virus); experiment: as above
[7] = molecular target: hemagglutinin (HA) of influenza A/WSN/33 (H1N1) (influenza A virus) (UniProt P03454); experiment: cell-based or functional assay
[8] = molecular target: hemagglutinin (HA) of influenza A/Env/MPJ1258/09 (H8N2) (influenza A virus); experiment: cell-based or functional assay
[9] = molecular target: hemagglutinin (HA) of influenza A/Aichi/2/68 (H3N2) (influenza A virus) (UniProt P03437); experiment: cell-based or functional assay
[10] = molecular target: hemagglutinin (HA) of influenza A/Eurasian Wigeon/MPH571/08 (H8N4) (influenza A virus); experiment: cell-based or functional assay
[11] = molecular target: hemagglutinin (HA) of influenza B/Lee/40 (Old) (influenza B virus) (UniProt P03460); experiment: cell-based or functional assay
[12] = molecular target: hemagglutinin (HA) of influenza A/Env/HK/MPU3156/05 (H2N2) (influenza A virus); experiment: cell-based or functional assay
[13] = molecular target: hemagglutinin (HA) of influenza A/Eurasian Wigeon/MPD411/07 (H6N8) (influenza A virus); experiment: cell-based or functional assay
[14] = molecular target: hemagglutinin (HA) of influenza A/Common Teal/MPH11/08 (H10N3) (influenza A virus); experiment: cell-based or functional assay
[15] = molecular target: hemagglutinin (HA) of influenza B/Florida/04/06 (Yamagata) (influenza B virus); experiment: cell-based or functional assay
[16] = molecular target: hemagglutinin (HA) of influenza B/Malaysia/2506/04 (Victoria) (influenza B virus); experiment: cell-based or functional assay
[17] = molecular target: hemagglutinin (HA) of influenza A/NIBRG/60 (A/mallard/Netherlands/12/00) (H7N3) (influenza A virus); experiment: cell-based or functional assay
[18] = molecular target: hemagglutinin (HA) of influenza A/Env/MPK659/09 (H12N5) (influenza A virus); experiment: cell-based or functional assay
[19] = molecular target: hemagglutinin (HA) of influenza A/New Caledonia/20/99 (H1N1) (influenza A virus); experiment: cell-based or functional assay
[20] = molecular target: hemagglutinin (HA) of influenza A/Mallard/Astrakhan/263/1982 (H14N5) (influenza A virus); experiment: cell-based or functional assay
[21] = molecular target: hemagglutinin (HA) of influenza A/Johannesburg/33/94 (H3N2) (influenza A virus); experiment: cell-based or functional assay
[22] = molecular target: hemagglutinin (HA) of influenza A/Great Cormorant/MPB1683/06 (H4N6) (influenza A virus); experiment: cell-based or functional assay
[23] = molecular target: hemagglutinin (HA) of influenza A/Indonesia/5/05 (H5N1) (influenza A virus); experiment: cell-based or functional assay
[24] = molecular target: hemagglutinin (HA) of influenza A/AnnArbor/23/57 (H2N2) (influenza A virus); experiment: cell-based or functional assay
[25] = molecular target: hemagglutinin (HA) of influenza A/WF/HK/MPA892/06 (H4) (influenza A virus); experiment: cell-based or functional assay
[26] = molecular target: hemagglutinin (HA) of influenza A/Eurasian Wigeon/HK/MPF333/07 (H5N2) (influenza A virus); experiment: cell-based or functional assay
[27] = molecular target: hemagglutinin (HA) of influenza A/Northern Pintail/MPC2085/07 (H11N9) (influenza A virus); experiment: cell-based or functional assay
[28] = molecular target: hemagglutinin (HA) of influenza A/Anhui/1/13 (H7N9) (influenza A virus); experiment: cell-based or functional assay
[29] = molecular target: hemagglutinin (HA) of influenza A/HK/1174/99 (H3N2) (influenza A virus); experiment: cell-based or functional assay
[30] = molecular target: hemagglutinin (HA) of influenza A/Eurasian Wigeon/MPF461/07 (H5N2) (influenza A virus); experiment: cell-based or functional assay
[31] = molecular target: hemagglutinin (HA) of influenza A/Brisbane/59/07 (H1N1) (influenza A virus); experiment: cell-based or functional assay
[32] = molecular target: hemagglutinin (HA) of influenza A/Ck/HK/SSP176/09 (H9N2) (influenza A virus); experiment: cell-based or functional assay
[33] = molecular target: hemagglutinin (HA) of influenza B/Harbin/7/94 (Yamagata) (influenza B virus); experiment: cell-based or functional assay
[34] = molecular target: hemagglutinin (HA) of influenza A/Jiangxi/346/2013 (H10N8) (influenza A virus); experiment: cell-based or functional assay
[35] = molecular target: hemagglutinin (HA) of influenza A/PR8 H5N1 HK97 (H5N1) (influenza A virus); experiment: cell-based or functional assay
[36] = molecular target: hemagglutinin (HA) of influenza A/Brisbane/10/07 (H3N2) (influenza A virus); experiment: cell-based or functional assay
[37] = molecular target: hemagglutinin (HA) of influenza A/Northern Shoveler/MPF518/08 (H7N7) (influenza A virus); experiment: cell-based or functional assay
[38] = molecular target: hemagglutinin (HA) of influenza A/Hiroshima/52/05 (H3N2) (influenza A virus); experiment: cell-based or functional assay
[39] = molecular target: hemagglutinin (HA) of influenza A/Env/HK/MPU3156/05 (H1N2) (influenza A virus); experiment: cell-based or functional assay
[40] = molecular target: hemagglutinin (HA) of influenza A/California/07/09 (H1N1) (influenza A virus); experiment: cell-based or functional assay
[41] = molecular target: hemagglutinin (HA) of influenza A/Fukui/45/04 (H3N2) (influenza A virus); experiment: cell-based or functional assay
[42] = molecular target: hemagglutinin (HA) of influenza A/HK/466419/09 (H9N2) (influenza A virus); experiment: cell-based or functional assay

MD3606 (Fc fusion) was tested, and the Kd [1] was 1.4 nM, the Kd [2] was 3.8 nM and the Kd [3] was 1.1 nM. For the same substance, the Kd [4] was 2.2 nM, the Kd [5] was 0.6 nM and the Kd [6] was 1.2 nM. The Average neutralization titers [7] was 2 nM, the Average neutralization titers [8] was 3.9 nM and the Average neutralization titers [9] was 32.2 nM. For the same substance, the Average neutralization titers [10] was 3.7 nM, the Average neutralization titers [11] was 3.3 nM and the Average neutralization titers [12] was 9.3 nM. The Average neutralization titers [13] was 9.7 nM, the Average neutralization titers [14] was 11.3 nM and the ADCC induction (EC50 grade, FcγRIIIa reporter bioassay) [15] was less than 0.1 µg/mL. The Average neutralization titers [15] was 1 nM, the Average neutralization titers [16] was 2.6 nM and the Average neutralization titers [17] was 12.9 nM. For the same substance, the Average neutralization titers [18] was greater than 1000 nM, the Average neutralization titers [19] was 2.6 nM and the Average neutralization titers [20] was 12.9 nM. It also gave an Average neutralization titers [21] of 8.1 nM, an Average neutralization titers [22] of 3.1 nM and an Average neutralization titers [23] of 11.5 nM. The Average neutralization titers [24] was 13.2 nM, the Average neutralization titers [25] was 3 nM and the Average neutralization titers [26] was 7 nM. For the same substance, the Average neutralization titers [27] was 7.2 nM, the Average neutralization titers [28] was 38.2 nM and the Average neutralization titers [29] was 23 nM. The Average neutralization titers [30] was 9.2 nM, the Average neutralization titers [31] was 5.3 nM and the Average neutralization titers [32] was 9 nM. For the same substance, the Average neutralization titers [33] was 1 nM, the Average neutralization titers [34] was 18.3 nM and the Average neutralization titers [35] was 6.5 nM. The Average neutralization titers [36] was 4.1 nM, the Average neutralization titers [37] was 18.4 nM and the Average neutralization titers [38] was 6.5 nM. It also gave an Average neutralization titers [39] of 2.6 nM, an Average neutralization titers [40] of 1.8 nM and an Average neutralization titers [41] of 40.5 nM. The Average neutralization titers [42] was 5.3 nM.
